The target of one assay is GFP-Miro1 (human) (UniProt Q8IXI2).
The target of assay [1] is endogenous Miro1 (human (endogenous in HEK293 and HeLa)) (UniProt Q8IXI2).
In assay [2] the target is T1, eGFP-cGTPase-TMD (Homo sapiens, UniProt Q8IXI2).
T1 construct: human Miro1 isoform 1 (UniProtKB Q8IXI2-1), C-terminal GTPase domain with the transmembrane domain; made from the GFP-Miro1 plasmid by site directed mutagenesis; also called C-terminal GTPase domain of Miro1; source: HEK293, transfected, in lysate; HeLa, transfected, in living cells; not shown: GFP, N-terminal, kept
T1 sequence (Q8IXI2 whole entry, looked up, the tested form may be a part, canonical isoform): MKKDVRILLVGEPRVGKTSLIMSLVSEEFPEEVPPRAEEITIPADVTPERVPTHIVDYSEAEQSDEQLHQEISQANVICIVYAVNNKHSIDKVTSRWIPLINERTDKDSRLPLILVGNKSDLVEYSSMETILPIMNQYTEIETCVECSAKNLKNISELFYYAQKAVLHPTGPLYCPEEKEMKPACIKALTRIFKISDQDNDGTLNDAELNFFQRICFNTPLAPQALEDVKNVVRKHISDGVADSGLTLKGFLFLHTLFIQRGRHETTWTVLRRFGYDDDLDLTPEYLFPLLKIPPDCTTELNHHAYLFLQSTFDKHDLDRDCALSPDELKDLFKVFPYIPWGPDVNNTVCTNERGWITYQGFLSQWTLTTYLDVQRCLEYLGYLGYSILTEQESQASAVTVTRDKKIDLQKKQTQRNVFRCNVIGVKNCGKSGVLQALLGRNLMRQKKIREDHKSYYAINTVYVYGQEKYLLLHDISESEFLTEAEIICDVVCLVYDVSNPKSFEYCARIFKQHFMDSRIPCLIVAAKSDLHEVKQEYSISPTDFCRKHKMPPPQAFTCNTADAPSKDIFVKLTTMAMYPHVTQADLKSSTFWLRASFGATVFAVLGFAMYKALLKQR
The assay is described as follows: pull-down; Nbs coupled to NHS-Sepharose (nanotraps) incubated 16 h at 4°C with the soluble fraction of HEK293 cells transiently expressing GFP-Miro1, GFP-tagged Miro1 deletion constructs or GFP (lysis buffer with 1% Triton X-100); immunoblot of bound fractions with anti-GFP and anti-GAPDH. The note with it: one partner purified.

The target in assay [3] is T1, eGFP-cGTPase-TMD. Put plainly: live-cell fluorescence imaging (relocalisation of the chromobody); TagRFP chromobodies transiently co-expressed with GFP-Miro1 or GFP-tagged Miro1 deletion constructs in HeLa cells. The note with it: partners not purified.
The target of the next assay is T2, Miro1 isoform 2 (Homo sapiens (endogenous, HEK293), UniProt Q8IXI2-2).
T2 construct: endogenous human Miro1 isoform 2, identified by mass spectrometry (search against the Uniprot Homo sapiens database; one unique peptide); source: endogenous, HEK293 lysate
T2 sequence (Q8IXI2 other isoform, or with tags, fused parts or gaps): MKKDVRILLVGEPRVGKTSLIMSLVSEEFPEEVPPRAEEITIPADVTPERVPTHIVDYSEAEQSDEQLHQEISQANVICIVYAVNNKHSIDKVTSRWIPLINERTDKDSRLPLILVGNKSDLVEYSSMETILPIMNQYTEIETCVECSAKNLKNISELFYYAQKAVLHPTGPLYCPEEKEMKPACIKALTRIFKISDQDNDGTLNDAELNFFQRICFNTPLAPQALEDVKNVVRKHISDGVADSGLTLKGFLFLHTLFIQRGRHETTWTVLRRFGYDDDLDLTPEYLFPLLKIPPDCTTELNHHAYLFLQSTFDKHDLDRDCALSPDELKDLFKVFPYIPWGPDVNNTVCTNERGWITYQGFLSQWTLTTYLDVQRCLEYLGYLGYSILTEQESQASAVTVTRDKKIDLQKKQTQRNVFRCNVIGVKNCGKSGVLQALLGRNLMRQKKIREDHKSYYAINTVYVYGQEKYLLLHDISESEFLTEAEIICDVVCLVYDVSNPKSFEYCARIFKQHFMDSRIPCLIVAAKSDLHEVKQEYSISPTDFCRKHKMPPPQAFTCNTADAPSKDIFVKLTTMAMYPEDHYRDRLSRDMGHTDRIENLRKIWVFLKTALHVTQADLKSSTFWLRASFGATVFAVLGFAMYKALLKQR
The assay is described as follows: affinity purification with mass spectrometry; mono- and bivalent M41 and M114 nanotraps incubated with HEK293 lysate, compared to control nanotraps; three technical replicates; label-free quantification, iBAQ. The note with it: one partner purified.

Another assay concerns the target T3, Miro1 isoform 3 (Homo sapiens (endogenous, HEK293), UniProt Q8IXI2-3).
T3 construct: endogenous human Miro1 isoform 3, identified by mass spectrometry (search against the Uniprot Homo sapiens database; 31 razor peptides); source: endogenous, HEK293 lysate
Described as above. The note with it: one partner purified.

Sequence of GFP-Miro1 (human) (Q8IXI2 whole entry): as the sequence (Q8IXI2 whole entry, looked up, the tested form may be a part, canonical isoform) above
Sequence of endogenous Miro1 (human (endogenous in HEK293 and HeLa)) (Q8IXI2 whole entry): as the sequence (Q8IXI2 whole entry, looked up, the tested form may be a part, canonical isoform) above
T3 sequence (Q8IXI2 other isoform, or with tags, fused parts or gaps): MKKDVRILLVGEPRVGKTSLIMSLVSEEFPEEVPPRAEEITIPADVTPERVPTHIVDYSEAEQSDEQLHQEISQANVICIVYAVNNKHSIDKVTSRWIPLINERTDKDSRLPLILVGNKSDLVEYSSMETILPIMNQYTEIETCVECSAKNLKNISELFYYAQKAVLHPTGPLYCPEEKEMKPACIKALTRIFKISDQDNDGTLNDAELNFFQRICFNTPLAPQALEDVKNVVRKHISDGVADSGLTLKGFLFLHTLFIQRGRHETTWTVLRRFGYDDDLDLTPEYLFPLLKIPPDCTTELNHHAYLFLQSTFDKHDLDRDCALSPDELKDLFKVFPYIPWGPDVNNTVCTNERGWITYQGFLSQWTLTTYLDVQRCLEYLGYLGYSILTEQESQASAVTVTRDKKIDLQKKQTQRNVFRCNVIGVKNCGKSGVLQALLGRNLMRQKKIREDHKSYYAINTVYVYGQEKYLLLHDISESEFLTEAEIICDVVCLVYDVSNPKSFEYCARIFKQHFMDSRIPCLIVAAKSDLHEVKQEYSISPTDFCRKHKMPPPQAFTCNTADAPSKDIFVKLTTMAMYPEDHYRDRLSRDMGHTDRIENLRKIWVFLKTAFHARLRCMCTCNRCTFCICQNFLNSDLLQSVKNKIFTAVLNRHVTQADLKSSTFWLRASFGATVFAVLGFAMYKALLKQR

B1: Fbox-M41 (VHH)
VHH: EVQLVESGGGLVHPGGSLRISCAASGFSFNSSAMSWARQAPGKGLEWVSGIQADGTTGYAHSVKGRFNISRDNAKNIVYLQMSSLKPEDSAVYYCAKEGWSTVVFGSRDYWGQGTQVTVSS
In the assay with GFP-Miro1 (human), B1 came in with a reduction of the GFP signal in HeLa cells coexpressing the Fbox-Nb construct and GFP-Miro1 (targeted degradation) of 50%. In assay [1], this molecule gave a decrease of the anti-Miro1 IF signal in HeLa cells 24 h after transfection of the Fbox-Nb (targeted degradation of endogenous Miro1; Fbox-NR control less than ∼4%) of 16%.

B2: Miro1-specific nanobody M41 (VHH)
VHH: B1 VHH
notes: Cloned into pHEN6C; also called M41-Nb; M41 nanotrap; source: E. coli, purified (IMAC, SEC)
Turning to B2, in the assay with eGFP-cGTPase-TMD [2], the binding result is given as “binds”.

B3: M41 chromobody (VHH)
VHH: B1 VHH
notes: as the VHH of m10 (M41); cloned into the plasmid described as PCNA-chromobody (Panza et al., 2015); also called M41-Cb; source: HeLa, transfected, in living cells
Take B3: in the assay with eGFP-cGTPase-TMD [3], the binding result is on record as “binds”.

B4: Miro1-specific nanobody M189 (VHH)
VHH: EVQLVESGGGLVQPGGSLRLSCTASGFPVSSAAMSWARQSPGKELEWVSGIYTDGSADYADSLKGRFTISRDDVENTINLQMNNLKPEDTAIYYCNANFFEGSWYDYWGQGSPVTVSS
notes: Cloned into pHEN6C; also called M189-Nb; M189 nanotrap; source: E. coli, purified (IMAC, SEC)
Turning to B4, the binding result in the assay with eGFP-cGTPase-TMD [2] is on record as “binds”.

B5: Miro1-specific nanobody M85 (VHH)
VHH: DVQLVESGGGKVQSGGSLRLSCAASGSKLDDYSIGWFRQAPGKGREGISCITMKTGSFEYVDSVKGRFTISADNAKNTVHLQMNNLKPEDTGIYYCAALRSRGLFCVTSPYEYDLWGQGSPVTVSS
notes: Cloned into pHEN6C; also called M85-Nb; M85 nanotrap; source: E. coli, purified (IMAC, SEC)
As to B5, the binding result with eGFP-cGTPase-TMD [2] was “binds”.

B6: M85 chromobody (VHH)
VHH: B5 VHH
notes: as the VHH of m11 (M85); cloned into the plasmid described as PCNA-chromobody (Panza et al., 2015); also called M85-Cb; source: HeLa, transfected, in living cells
As to B6, in the assay with eGFP-cGTPase-TMD [3], the binding result is reported as “binds”.

B7: Miro1-specific nanobody M11 (VHH)
VHH: QVQLVESGGGSVQPGGSLRLSCAASGFSFSSNVMSWARQAPGKGLEWVSGIYVDGRTHYADSVKGRFTISRDNAKNTVYLQMNSLKPEDTAVYYCAAAGDLSGYSFSPYDYDYWGQGTQVTVSS
notes: Cloned into pHEN6C; also called M11-Nb; M11 nanotrap; source: E. coli, purified (IMAC, SEC)
As to B7, in the assay with eGFP-cGTPase-TMD [2], the binding result is “binds”.

B8: Fbox-M114 (VHH)
VHH: EVQLQESGGGLVQPGGSLRLSCTASGFPVSSAAMSWARQSPGKELEWVSGIYTDGSADYADSLKGRFTISRDDVENTINLQMNSLKPEDTAVYYCKTDWWAGPSGYVAVWGQGTLVTVSS
For B8, the reduction of the GFP signal in HeLa cells coexpressing the Fbox-Nb construct and GFP-Miro1 (targeted degradation) with GFP-Miro1 (human) amounted to 80%. This molecule also displayed a decrease of the anti-Miro1 IF signal in HeLa cells 24 h after transfection of the Fbox-Nb (targeted degradation of endogenous Miro1; Fbox-NR control less than ∼4%) in assay [1] of 30%.

B9: Miro1-specific nanobody M114 (VHH)
VHH: B8 VHH
notes: Cloned into pHEN6C; also called M114-Nb; M114 nanotrap; source: E. coli, purified (IMAC, SEC)
With B9, the binding result with Miro1 isoform 2, with Miro1 isoform 3 and in the assay with eGFP-cGTPase-TMD [2] was “binds” in each case.

B10: M114 chromobody (VHH)
VHH: B8 VHH
notes: as the VHH of m12 (M114); cloned into the plasmid described as PCNA-chromobody (Panza et al., 2015); also called M114-Cb; M114-CB; source: HeLa, transfected, in living cells
On to B10, for which the binding result in the assay with eGFP-cGTPase-TMD [3] is “binds”.
